Results taken from article PMC4636433.

Molecular target: Rep68 wt (Adeno-associated virus 2 (AAV2), UniProt P03132 1-536)
Assay: fluorescence anisotropy

Rep68 wt, sequence (P03132 whole entry): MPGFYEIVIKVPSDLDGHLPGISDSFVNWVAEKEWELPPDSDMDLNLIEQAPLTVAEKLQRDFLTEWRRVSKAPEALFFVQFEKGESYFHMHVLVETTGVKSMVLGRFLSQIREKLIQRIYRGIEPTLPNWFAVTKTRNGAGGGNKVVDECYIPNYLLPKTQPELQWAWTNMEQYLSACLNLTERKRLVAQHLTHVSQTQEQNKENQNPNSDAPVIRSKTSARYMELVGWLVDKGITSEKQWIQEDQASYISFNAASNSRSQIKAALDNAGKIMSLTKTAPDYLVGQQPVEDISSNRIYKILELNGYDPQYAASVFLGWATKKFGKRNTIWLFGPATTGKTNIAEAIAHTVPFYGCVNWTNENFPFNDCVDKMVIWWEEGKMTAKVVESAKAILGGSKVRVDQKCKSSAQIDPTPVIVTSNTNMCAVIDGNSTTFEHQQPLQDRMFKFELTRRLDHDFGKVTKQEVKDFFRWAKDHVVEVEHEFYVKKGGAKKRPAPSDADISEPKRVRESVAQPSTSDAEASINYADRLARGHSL

B1: 41-mer AAVS1 RBS DNA (dsDNA)
DNA 1: TGGCGGCGGTTGGGGCTCGGCGCTCGCTCGCTCGCTGGGCG
DNA 2: CGCCCAGCGAGCGAGCGAGCGCCGAGCCCCAACCGCCGCCA
B1: binds.
